Assay [1] addresses recombinant human MMP-9/NGAL complex (human) (UniProt P14780). Kind of assay: ELISA (Quantikine, R&D Systems).
For assay [2], the target named is human CNP-53 (AA 51-103) (human) (UniProt P23582). Description: radioimmunoassay.
The target in assay [3] is human CNP-22 (AA 82-103) (human) (UniProt P23582). Description: radioimmunoassay.
Assay [4] concerns the target adrenomedullin (Homo sapiens (Human)) (UniProt P35318). Kind of assay: radioimmunoassay, competition with I125-labeled CNP.
The target of assay [5] is human CNP-53 (AA 51-103) (human) (UniProt P23582). The assay is described as above.
Assay [6] has as its target BNP (Homo sapiens (Human)) (UniProt P16860). The description is as above.
In assay [7] the target is ANP (Homo sapiens (Human)) (UniProt P01160). The description is as above.
Assay [8] deals with endothelin. The description is as above.

As for “NGAL enzyme-linked immunoassay (Quantikine ELISA, R&D Systems) (tool reagent)”, the cross-reactivity in assay [1] was found to be 0.3%.
With “antibody that detects human CNP-22, non-equilibrium radioimmunoassay kit from Phoenix Pharmaceutical (Example 2) (tool reagent)”, the cross-reactivity in assay [2] turned out to be 59%.
The substance “antibody that detects human CNP-53, non-equilibrium radioimmunoassay kit from Phoenix Pharmaceutical (tool reagent)” returned a cross-reactivity in assay [3] of 100%.
As for “antibody to human CNP-22 of the non-equilibrium radioimmunoassay kit from Phoenix Pharmaceutical (Example 1) (tool reagent)”, the cross-reactivity in assay [4] was below 1%; in assay [5] it was 97%; in assay [6], below 1%; in assay [7], below 1%; in assay [8], below 1%.

For the origin of these results see patent US20150293119A1.
